Measurements taken from US7919262B2, “14-3-3 proteins for diagnosis of Parkinson's disease” (The UAB Research Foundation, priority 2007, dated 2011).

How the values were obtained:
M17 cells = assay: MPP+ toxicity in stably transfected cell lines, LDH release; type: cell-based, human; details: stable overexpression; MPP+ 0-10 mM; 24 hours
Method: Cell lines stably-transfected with either a 14-3-3 isoform or empty vector were treated with varying concentrations of MPP+ for 24 hours. Cell death was assayed by LDH release into the culture media. LDH release into media was normalized to total LDH release for each well. Lines overexpressing 14-3-3θ (FIG. 9A), 14-3-3ε (FIG. 9B), or 14-3-3γ (FIG. 9C) were more resistant to MPP+ in a dose-dependent manner compared to control stable cells. […] Results reflect two to three independent experiments with at least two replicates per experiment. **p<0.01, ***p<0.001 (Bonferroni's multiple comparison test).
The 14-3-3 expressing M17 clones were also tested for resistance to the neurotoxin 1-methyl-4-phenylpyridinium ion (MPP+), which is a metalbolite of 1-methyl-4-phenyl-1,2,3,6-tetrahydropyridine (MPTP). M17 cells expressing the 14-3-3 isoforms were prepared as described. M17 cells were treated with MPP+ (0-10 mM) for 24 hours (FIGS. 9A-G). Cell death was assayed by LDH release into the culture media as described above.
Primers against each of the human 14-3-3 isoforms were designed using Primer3. Primers against 14-3-3β (NM_018753) were 5′ […] 3′ (forward; SEQ ID NO. 9) and 5′ […] 3′ (reverse; SEQ ID NO. 10). Primers against 14-3-3ε (NM_009536) were 5′ […] 3′ (forward; SEQ ID NO. 11) and 5′ […] 3′ (reverse; SEQ ID NO. 12). Primers against 14-3-3γ (NM_018871) were 5′ […] 3′ (forward; SEQ ID NO. 13) and 5′ […] 3′ (reverse; SEQ ID NO. 14). Primers against 14-3-3η (NM_011738) were 5′ […] 3′ (forward; SEQ ID NO. 15) and 5′ […] 3′ (reverse; SEQ ID NO. 16). Primers against 14-3-3θ (NM_011739) were 5′ […] 3′ (forward; SEQ ID NO. 17) and 5′ […] 3′ (reverse; SEQ ID NO. 18). Primers against 14-3-3σ (NM_018754) were 5′ […] 3′ (forward; SEQ ID NO. 19) and 5′ […] 3′ (reverse; SEQ ID NO. 20). Primers against 14-3-3ζ(NM_011740) were 5′ […] 3′ (forward; SEQ ID NO. 21) and 5′ […] 3′ (reverse; SEQ ID NO. 22). Primers against GAPDH were 5′ tggtgaagcaggeatctga 3′ (forward; SEQ ID NO. 23) and 5′ […] 3′ (reverse; SEQ ID NO. 24) and were used to normalize PCR results. • α-syn aggregation assay H4 cells were transfected with synphilin, α-syn/green fluorescent protein (synT), and either empty vector control or a 14-3-3 isoform using Superfect transfection reagent (Qiagen). 24 hours after transfection, cells were fixed with 4% paraformaldehyde and immunostained with a monoclonal antibody against α-syn (BD Transduction) and a secondary Alexa 488-conjugated goat anti-mouse antibody (Molecular Probes). All cells stained for α-syn were scored as positive or negative for α-syn aggregates, with the rater blind to experimental condition. • α-syn toxicity assay H4 cells were transfected with α-syn and either empty vector control or a 14-3-3 isoform using Superfect transfection reagent (Qiagen). 24 hours after transfection, toxicity was measured by the amount of adenylate kinase released into the media using the ToxiLight™ kit (Cambrex). • Creation of stable cell lines Each 14-3-3 isoform was subcloned into the mammalian expression vector mcDNA3.1/V5-His (Invitrogen). BE(2)-M17 cells were transfected with each isoform or empty vector using Superfect, and stably-transfected cells were selected for in the presence of G418. […] Protein concentrations of supernatants were determined by the bicinchoninic acid assay (BCA; Pierce, Rockford, Ill.). […]

[1] = tested on: SK-N-BE(2)-M17 (M17) cells; assay: Rotenone toxicity in stably transfected cell lines, LDH release; type: cell-based; details: for rotenone-induced cell death, % of that in control cells: 1 μM rotenone, LDH release; for rotenone-induced cell death, % of that in control cells / protection against rotenone toxicity (LDH release): 48 hours; for protection against rotenone toxicity (LDH release): rotenone at varying concentrations
Method: Cell lines stably-transfected with either 14-3-3θ or empty vector were treated with varying concentrations of rotenone (0-25 μM) for 24 hours (FIG. 6A), 30 hours (FIG. 6B), or 48 hours (FIG. 6C). Cell death was assayed by LDH release into the culture media. LDH release into media was normalized to total LDH release for each well. […] Rater was blind to experimental condition. n=8 for each experimental condition. *p<0.05, ***p<0.001 (Bonferroni's multiple comparison test).
M17 cell lines stably-transfected with either a 14-3-3 isoform or empty vector were treated with varying concentrations of rotenone (0-25 μM) for 48 hours. Cell death was assayed by LDH release into the culture media. LDH release into media was normalized to total LDH release for each well. […] Results reflect two to three independent experiments with at least two replicates per experiment. *p<0.05, **p<0.01, ***p<0.001 (Bonferroni's multiple comparison test).
Additional studies were performed to evaluate the effect of 14-3-3 polypeptide isoforms in mammalian cells. In these studies, cDNA clones for the 14-3-3 polypeptide β, γ, ε, η, θ, and σ isoforms were subcloned into the mammalian expression vector pcDNA 3.1/V5/His (Invitrogen). The polypeptide expressed from this vector contains the particular 14-3-3 isoform with a V5 and a His6 tag at the C-terminal end. […] SK-N-BE(2)-M17 (M17) cells, a dopaminergic-producing human neuroblastoma cell line, were transfected with each isoform or empty vector using Superfect, and stably-transfected cells were selected for in the presence of G418.
The M17 14-3-3θ clones were examined for their resistance to rotenone (0-25 μM). M17 cell lines stably transfected with either 14-3-3θ or empty vector were treated with rotenone for 24 (FIG. 6A), 30 (FIG. 6B) or 48 hours (FIG. 6C). Cell death was assayed by […] (LDH) release into the culture media using the LDH assay kit from Roche. LDH release into media was normalized to total LDH release for each well. Results reflect three independent experiments with at least two replicates per experiment.
Stable M17 cell lines overexpressing these other isoforms were treated with rotenone at varying concentrations, and then cell death was assayed at 48 hours by LDH release. […]

Molecule: 14-3-3γ: 14-3-3 polypeptide γ isoform, overexpressed from expression vector
- protection against MPP+ toxicity (LDH release) (M17 cells): reduced toxicity
- rotenone-induced cell death, % of that in control cells ([1]; stable overexpression): 55%
- protection against rotenone toxicity (LDH release) ([1]; stable overexpression): prominent reduction in rotenone-induced toxicity

B1: 14-3-3θ: 14-3-3 polypeptide θ isoform, overexpressed from V5/His-tagged pcDNA3.1 vector (or as transgene in C. elegans) (protein, UniProt P27348 1-245, looked up)
14-3-3 protein theta: MEKTELIQKAKLAEQAERYDDMATCMKAVTEQGAELSNEERNLLSVAYKNVVGGRRSAWRVISSIEQKTDTSDKKLQLIKDYREKVESELRSICTTVLELLDKYLIANATNPESKVFYLKMKGDYFRYLAEVACGDDRKQTIDNSQGAYQEAFDISKKEMQPTHPIRLGLALNFSVFYYEILNNPELACTLAKTAFDEAIAELDTLNEDSYKDSTLIMQLLRDNLTLWTSDSAGEECDAAEGAEN
modifications: V5/His tag
- protection against MPP+ toxicity (LDH release) (M17 cells): reduced toxicity
- protection against rotenone at low doses ([1]; 0.04 and 0.2 μM rotenone): Mild protection
- protection against rotenone at higher doses ([1]; 1 and 5 μM rotenone): more prominent protection
- rotenone-induced cell death, % of that in control cells ([1]; stable overexpression): 45%
- resistance to rotenone toxicity compared to control cells (LDH release) ([1]; stable overexpression, rotenone 0-25 μM, 24, 30 or 48 hours): more resistant to rotenone toxicity

B2: 14-3-3ε: 14-3-3 polypeptide ε isoform, overexpressed from expression vector (protein, UniProt P62258 1-255, looked up)
14-3-3 protein epsilon: MDDREDLVYQAKLAEQAERYDEMVESMKKVAGMDVELTVEERNLLSVAYKNVIGARRASWRIISSIEQKEENKGGEDKLKMIREYRQMVETELKLICCDILDVLDKHLIPAANTGESKVFYYKMKGDYHRYLAEFATGNDRKEAAENSLVAYKAASDIAMTELPPTHPIRLGLALNFSVFYYEILNSPDRACRLAKAAFDDAIAELDTLSEESYKDSTLIMQLLRDNLTLWTSDMQGDGEEQNKEALQDVEDENQ
- protection against MPP+ toxicity (LDH release) (M17 cells): reduced toxicity
- rotenone-induced cell death, % of that in control cells ([1]; stable overexpression): 65%
- protection against rotenone toxicity (LDH release) ([1]; stable overexpression): prominent reduction in rotenone-induced toxicity

B3: 14-3-3ζ: 14-3-3 polypeptide ζ isoform, overexpressed from expression vector (protein, UniProt P63104 1-245, looked up)
14-3-3 protein zeta/delta: MDKNELVQKAKLAEQAERYDDMAACMKSVTEQGAELSNEERNLLSVAYKNVVGARRSSWRVVSSIEQKTEGAEKKQQMAREYREKIETELRDICNDVLSLLEKFLIPNASQAESKVFYLKMKGDYYRYLAEVAAGDDKKGIVDQSQQAYQEAFEISKKEMQPTHPIRLGLALNFSVFYYEILNSPEKACSLAKTAFDEAIAELDTLSEESYKDSTLIMQLLRDNLTLWTSDTQGDEAEAGEGGEN
- protection against MPP+ toxicity (LDH release) (M17 cells): did not show any significant protection
- rotenone-induced cell death, % of that in control cells ([1]; stable overexpression): 78%
- protection against rotenone toxicity (LDH release) ([1]; stable overexpression): some protection
